± gives the uncertainty stated by the source.
B1: POU domain, class 3, transcription factor 2, residues 356 to 411; numbered along this chain, P20265 (parent)
chain: KKRTSIEVSVKGALESHFLKCPKPSAQEITSLADSLQLEKEVVRVWFCNRRQKEKR

Variants of: B1
Assay: abundance fitness (aPCA) (normalised: wild type 0, dead -1); higher = more abundant; growth selection in yeast, the domain comes from the species named
Settings: Homo sapiens

| Variant | abundance fitness |
| --- | --- |
| W46R | -0.805 ± 0.084 |
| W46V | -0.933 ± 0.12 |
| W46M | -0.922 ± 0.14 |
| W46P | -0.986 ± 0.15 |
| W46E | -0.946 ± 0.17 |
| W46D | -0.318 ± 0.38 |
| W46A | -0.932 ± 0.13 |
| W46G | -0.92 ± 0.1 |
| W46Q | -0.78 ± 0.16 |
| W46S | -0.698 ± 0.1 |
| W46I | -0.932 ± 0.19 |
| W46L | -0.934 ± 0.091 |
| W46N | -0.896 ± 0.3 |
| W46C | -0.826 ± 0.35 |
| W46K | -0.845 ± 0.18 |
| W46F | -0.393 ± 0.15 |
| W46Y | -0.648 ± 0.24 |
| W46T | -0.958 ± 0.17 |
| W46H | -0.927 ± 0.23 |
| Q37L | -0.245 ± 0.07 |
| Q37M | -0.151 ± 0.1 |
| Q37R | -0.138 ± 0.074 |
| Q37F | -0.183 ± 0.12 |
| Q37A | -0.054 ± 0.071 |

| Variant | abundance fitness |
| --- | --- |
| Q37P | -0.916 ± 0.15 |
| Q37I | -0.63 ± 0.13 |
| Q37D | -0.192 ± 0.14 |
| Q37W | -0.394 ± 0.12 |
| Q37T | -0.316 ± 0.11 |
| Q37V | -0.394 ± 0.073 |
| Q37C | 0.087 ± 0.14 |
| Q37S | -0.032 ± 0.073 |
| Q37N | -0.077 ± 0.18 |
| Q37K | -0.064 ± 0.1 |
| Q37Y | -0.353 ± 0.14 |
| K40G | -0.085 ± 0.078 |
| K40V | 0.007 ± 0.11 |
| K40R | 0.017 ± 0.066 |
| K40H | 0.132 ± 0.21 |
| K40Q | 0.078 ± 0.12 |
| K40W | -0.178 ± 0.1 |
| K40D | -0.344 ± 0.16 |
| K40F | -0.004 ± 0.13 |
| K40P | -0.027 ± 0.12 |
| K40N | 0.021 ± 0.19 |
| K40E | 0.096 ± 0.12 |
| K40L | -0.147 ± 0.083 |
| K40C | -0.153 ± 0.095 |

| Variant | abundance fitness |
| --- | --- |
| K40S | -0.036 ± 0.085 |
| K40M | -0.013 ± 0.17 |
| K40A | -0.017 ± 0.097 |
| E39Y | -0.653 ± 0.16 |
| E39N | -0.217 ± 0.13 |
| E39A | -0.224 ± 0.11 |
| E39M | -0.941 ± 0.16 |
| E39L | -0.847 ± 0.11 |
| E39T | -0.159 ± 0.12 |
| E39K | -0.121 ± 0.13 |
| E39G | -0.324 ± 0.088 |
| E39H | 0.036 ± 0.12 |
| E39I | -0.982 ± 0.37 |
| E39S | -0.039 ± 0.076 |
| E39P | -0.244 ± 0.13 |
| E39C | -0.133 ± 0.093 |
| E39W | -0.943 ± 0.17 |
| E39F | -1.01 ± 0.26 |
| E39R | -0.404 ± 0.083 |
| R44F | -0.481 ± 0.089 |
| R44S | -0.09 ± 0.07 |
| R44N | -0.152 ± 0.11 |
| R44P | -0.814 ± 0.12 |
| R44Y | -0.416 ± 0.12 |

| Variant | abundance fitness |
| --- | --- |
| R44E | 0.027 ± 0.12 |
| R44L | -0.407 ± 0.068 |
| R44W | -0.412 ± 0.14 |
| R44D | 0.008 ± 0.11 |
| R44T | -0.08 ± 0.11 |
| R44V | -0.38 ± 0.076 |
| R44C | -0.495 ± 0.1 |
| R44I | -0.272 ± 0.11 |
| R44G | -0.188 ± 0.1 |
| R44M | -0.214 ± 0.11 |
| R44H | -0.127 ± 0.11 |
| R44A | -0.027 ± 0.083 |
| R44Q | -0.057 ± 0.1 |
| A33Q | -1.12 ± 0.33 |
| A33F | -0.599 ± 0.12 |
| A33T | -0.83 ± 0.17 |
| A33M | -0.759 ± 0.26 |
| A33N | -0.963 ± 0.33 |
| A33C | -0.428 ± 0.099 |
| A33H | -0.789 ± 0.25 |
| A33V | -0.71 ± 0.13 |
| A33I | -1.03 ± 0.42 |
| A33S | -0.236 ± 0.087 |
| A33R | -0.936 ± 0.1 |

| Variant | abundance fitness |
| --- | --- |
| A33P | -0.794 ± 0.19 |
| A33E | -0.55 ± 0.26 |
| A33G | -0.806 ± 0.12 |
| A33Y | -0.963 ± 0.2 |
| A33W | -0.735 ± 0.17 |
| A33K | -0.631 ± 0.17 |
| E41N | -0.069 ± 0.18 |
| E41A | -0.238 ± 0.12 |
| E41W | -0.494 ± 0.11 |
| E41C | -0.558 ± 0.12 |
| E41L | -0.881 ± 0.1 |
| E41D | -0.114 ± 0.14 |
| E41Y | -0.489 ± 0.18 |
| E41G | -0.408 ± 0.085 |
| E41T | -0.303 ± 0.13 |
| E41V | -0.596 ± 0.1 |
| E41M | -0.791 ± 0.2 |
| E41F | -0.723 ± 0.22 |
| E41S | -0.256 ± 0.086 |
| E41K | -0.446 ± 0.17 |
| E41R | -0.337 ± 0.078 |
| E41P | -0.697 ± 0.14 |
| E41H | -0.168 ± 0.19 |
| E41Q | -0.26 ± 0.14 |

| Variant | abundance fitness |
| --- | --- |
| N49G | -0.25 ± 0.09 |
| N49F | -0.515 ± 0.15 |
| N49D | 0.221 ± 0.2 |
| N49H | -0.08 ± 0.19 |
| N49L | -0.149 ± 0.08 |
| N49M | -0.197 ± 0.1 |
| N49Q | -0.005 ± 0.088 |
| N49K | -0.056 ± 0.12 |
| N49C | -0.14 ± 0.11 |
| N49S | -0.137 ± 0.072 |
| N49Y | -0.396 ± 0.13 |
| N49R | -0.135 ± 0.065 |
| N49T | -0.207 ± 0.097 |
| N49V | -0.103 ± 0.12 |
| N49W | -0.18 ± 0.083 |
| N49I | -0.249 ± 0.17 |
| N49E | 0.066 ± 0.12 |
| N49A | -0.239 ± 0.093 |
| C48I | -0.004 ± 0.18 |
| C48N | -0.165 ± 0.19 |
| C48R | -0.217 ± 0.091 |
| C48L | -0.059 ± 0.092 |
| C48T | -0.105 ± 0.14 |
| C48P | -0.948 ± 0.23 |

| Variant | abundance fitness |
| --- | --- |
| C48M | -0.052 ± 0.15 |
| C48F | 0.078 ± 0.12 |
| C48V | -0.015 ± 0.084 |
| C48K | 0.101 ± 0.16 |
| C48Y | 0.096 ± 0.12 |
| C48E | 0.149 ± 0.15 |
| C48W | -0.007 ± 0.1 |
| C48Q | 0.141 ± 0.15 |
| C48A | -0.096 ± 0.1 |
| C48H | -0.118 ± 0.19 |
| C48D | -0.053 ± 0.14 |
| L32W | -0.915 ± 0.15 |
| L32Y | -0.831 ± 0.21 |
| L32V | -0.303 ± 0.096 |
| L32T | -0.943 ± 0.22 |
| L32S | -0.875 ± 0.12 |
| L38D | -0.983 ± 0.19 |
| L38Q | -0.519 ± 0.12 |
| L38F | -0.788 ± 0.24 |
| L38V | -0.119 ± 0.074 |
| L38A | -0.713 ± 0.11 |
| L38E | -0.696 ± 0.14 |
| L38W | -0.804 ± 0.1 |

Reference: the Human Domainome abundance scans (Beltran et al. 2025)
